For test [1], the target named is T1, PSMA Fab.
T1 construct: also called 006 PSMA Fab; anti-PSMA Fab
Nature of the test: competition ELISA; peptide 0-100 µM with 0.3 nM PSMA Fab on plate-captured biotinylated PSMA.

The target in test [2] is T2, Anti-CD28 scFv (VH - linker 1 - VL) (biotinylated (site not stated)). In words: phage binding ELISA on captured anti-CD28 scFv; wells pre-incubated with soluble CD28 protein (competitor).
The target in test [3] is T2, Anti-CD28 scFv (VH - linker 1 - VL). In words: phage binding ELISA; biotinylated anti-CD28 scFv on neutravidin plate, clonal phage supernatant, anti-M13 HRP detection.
Experimental: Clonal phage were harvested as crude supernatants and screened via standard enzyme linked immunosorbent assays (ELISAs). […] Prior to the addition of clonal phage, wells were incubated with blocking buffer and CD28 soluble protein or blocking buffer alone. Without washing or aspirating, clonal phage supernatants were then added to the wells and incubated for a short time. Wells were then washed followed by detection of bound phage using a horse radish peroxidase conjugated anti-M13 antibody.
Test [4] concerns the target T3, anti-CD28 scFv (VH - linker 1 - VL) (biotinylated (site not given)).
T3 construct: Biotinylated scFv captured on neutravidin coated plates in the panning ELISA
In words: phage ELISA as above; wells pre-incubated with soluble CD28 as competitor.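 Also: crude clonal phage supernatants tested, with bound phage detected by HRP-conjugated anti-M13 antibody, and reference wells given blocking buffer without CD28.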

Here are results for 44 molecules from patent US20260242478A1 (published 2026).

Where no end group is shown, it is not given here.

T2 sequence (scFv, as listed by the source): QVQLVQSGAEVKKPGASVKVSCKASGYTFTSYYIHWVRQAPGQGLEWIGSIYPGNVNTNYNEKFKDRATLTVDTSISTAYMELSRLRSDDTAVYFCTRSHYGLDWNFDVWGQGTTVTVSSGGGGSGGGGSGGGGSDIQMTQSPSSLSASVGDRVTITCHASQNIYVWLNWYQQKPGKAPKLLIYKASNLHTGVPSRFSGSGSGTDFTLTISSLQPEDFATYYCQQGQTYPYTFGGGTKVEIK
T3 sequence (scFv, as listed by the source): as above

In test [1], LEKTCIPTWMCVGF [Peptide-234] gave an IC50 of 2080 nM.

B1: Phage-51 clonal phage peptide (peptide, not shown: large carriers)
peptide: MDWCPMDLWDYCFN
modifications: cysteine pairing not given here; also: displayed on phage by fusion to pIII, linker and pIII sequence not given here
For the molecule B1, the “CD28 scFv signal in presence of CD28” value in test [2] was determined as 0.107. The “CD28 scFv signal” value in test [3] came out at 1.64.
For MDWCPRHLWVHCFN (peptide, not shown: large carriers) [Phage-42 clonal phage peptide], in that order: 0.254 and 2.5.
In test [1], IDKLCIPFWMCENL [Peptide-221] displayed an IC50 of 2130 nM.
For the molecule MDWCPRDSWHLCFA (peptide, not shown: large carriers) [Phage-59 clonal phage peptide], in test [2], the “CD28 scFv signal in presence of CD28” value was 0.147. Further, the “CD28 scFv signal” value in test [3] worked out at 2.45.
For MDWCPIALWAECFN (peptide, not shown: large carriers) [Phage-44 clonal phage peptide], in that order: 0.224 and 2.46.
Take MDWCPRALWAECFN (peptide, not shown: large carriers) [Phage-64 clonal phage peptide]: the “CD28 scFv signal in presence of CD28” value in test [2] was found to be 0.339. Also, in test [3], the “CD28 scFv signal” value came to 2.68.
For MHWCPMDQWSNCFN (peptide, not shown: large carriers) [Phage-56 clonal phage peptide], in that order: 0.084 and 0.515.
For MDWCPIDMWDQCFN (peptide, not shown: large carriers) [Phage-40 clonal phage peptide], in that order: 0.297 and 2.66.
Take MDWCPRALWHECFT [Phage-108]: the “CD28 scFv signal in presence of CD28” value in test [4] was found to be 0.191.
In the case of FEKWCTPPWMCSLF [Peptide-222], the IC50 in test [1] turned out to be 4160 nM.
As for MDWCPRPLWHECFS (peptide, not shown: large carriers) [Phage-45 clonal phage peptide], the “CD28 scFv signal in presence of CD28” value in test [2] is 0.121. In addition, in test [3], the “CD28 scFv signal” value came out at 2.35.

B2: Phage-49 clonal phage peptide (peptide, not shown: large carriers)
peptide: MSWCPIHLWNECFN
modifications: cysteine pairing not given here; also: displayed on phage by fusion to pIII, linker and pIII sequence not given here
With B2, the “CD28 scFv signal in presence of CD28” value in test [2] came to 0.284. The “CD28 scFv signal” value in test [3] was 2.06.
In test [1], LEKLCKPAWMCVNF [Peptide-238] registered an IC50 of 1550 nM.
As for MDWCPRYLWNVCFN [Phage-105], the “CD28 scFv signal in presence of CD28” value in test [4] is 0.57.
Still for that read-out and setting: in the case of MDWCPRYLWAECFY [Phage-102] it was 0.354.
Consider MHWCPIDRWADCFN (peptide, not shown: large carriers) [Phage-58 clonal phage peptide], for which the “CD28 scFv signal in presence of CD28” value in test [2] came to 0.077. The “CD28 scFv signal” value in test [3] amounted to 0.287.
Turning to MAWCPRDKWSECFS (peptide, not shown: large carriers) [Phage-41 clonal phage peptide], in test [2], the “CD28 scFv signal in presence of CD28” value turned out to be 0.147. Also, in test [3], the “CD28 scFv signal” value stood at 0.853.
As to MDWCPMYLWNECFN (peptide, not shown: large carriers) [Phage-65 clonal phage peptide], the “CD28 scFv signal in presence of CD28” value in test [2] was 0.471. In test [3], the “CD28 scFv signal” value came out at 2.61.
In test [1], EGIRCTPIWMCEGF [Peptide-224] registered an IC50 of 1880 nM.
For MDWCPRDLWHECFN [Phage-103], in test [4], the “CD28 scFv signal in presence of CD28” value is 0.218.
For the molecule MDWCPIYLWDECFN [Phage-106], the “CD28 scFv signal in presence of CD28” value in test [4] was 0.215.
With MDWCPRDLWAECFN [Phage-107], the “CD28 scFv signal in presence of CD28” value in test [4] came to 0.207.

B3: Phage-54 clonal phage peptide (peptide, not shown: large carriers)
peptide: MNWCPRDMWYQCFN
modifications: cysteine pairing not given here; also: displayed on phage by fusion to pIII, linker and pIII sequence not given here
B3: the “CD28 scFv signal in presence of CD28” value in test [2] was determined as 0.177. In addition, the “CD28 scFv signal” value in test [3] turned out to be 1.95.
Turning to FEKLCVPKWMCEGI [Peptide-220], in test [1], the IC50 amounted to 1570 nM.
On to MVSCPTTMWNRCFN (peptide, not shown: large carriers) [Phage-61 clonal phage peptide], for which the “CD28 scFv signal in presence of CD28” value in test [2] was 0.072. The “CD28 scFv signal” value in test [3] amounted to 1.33.
Turning to MDWCPRHRWVDCFY (peptide, not shown: large carriers) [Phage-57 clonal phage peptide], the “CD28 scFv signal in presence of CD28” value in test [2] was found to be 0.11. In addition, the “CD28 scFv signal” value in test [3] amounted to 0.478.
As to LTKLCIPDWMCSEF [Peptide-226], in test [1], the IC50 is 2680 nM.
For the molecule IDWCPRYLWDECYN (peptide, not shown: large carriers) [Phage-48 clonal phage peptide], the “CD28 scFv signal in presence of CD28” value in test [2] amounted to 0.153. The “CD28 scFv signal” value in test [3] was 2.24.

B4: Phage-55 clonal phage peptide (peptide, not shown: large carriers)
peptide: QDWCPRHMWSFCFH
modifications: cysteine pairing not given here; also: displayed on phage by fusion to pIII, linker and pIII sequence not given here
Regarding B4, the “CD28 scFv signal in presence of CD28” value in test [2] was determined as 0.081. In addition, the “CD28 scFv signal” value in test [3] is 0.074.

B5: Phage-52 clonal phage peptide (peptide, not shown: large carriers)
peptide: MDWCPINLWDECFS
modifications: cysteine pairing not given here; also: displayed on phage by fusion to pIII, linker and pIII sequence not given here
Turning to B5, the “CD28 scFv signal in presence of CD28” value in test [2] came out at 0.096. In addition, the “CD28 scFv signal” value in test [3] amounted to 1.5.
Regarding MDWCPRDLWDLCFF [Phage-104], the “CD28 scFv signal in presence of CD28” value in test [4] stood at 0.156.

B6: Phage-53 clonal phage peptide (peptide, not shown: large carriers)
peptide: MDWCPMHLWNKCFN
modifications: cysteine pairing not given here; also: displayed on phage by fusion to pIII, linker and pIII sequence not given here
As to B6, the “CD28 scFv signal in presence of CD28” value in test [2] stood at 0.122. The “CD28 scFv signal” value in test [3] was found to be 1.04.
In the case of MDWCPRSLWHYCFA [Phage-101], the “CD28 scFv signal in presence of CD28” value in test [4] stood at 0.338.
Turning to MHWCPIDLWAECYA (peptide, not shown: large carriers, cysteine pairing not given here; also: displayed on phage, fused to pIII) [Phage-46 clonal phage peptide], the “CD28 scFv signal in presence of CD28” value in test [2] worked out at 0.225. Besides, the “CD28 scFv signal” value in test [3] was determined as 2.28.

B7: Phage-50 clonal phage peptide (peptide, not shown: large carriers)
peptide: MDWCPPYLWNVCFS
modifications: cysteine pairing not given here; also: displayed on phage by fusion to pIII, linker and pIII sequence not given here
In the case of B7, the “CD28 scFv signal in presence of CD28” value in test [2] stood at 0.1. Besides, the “CD28 scFv signal” value in test [3] is 1.64.
Turning to MDWCPRTLWYLCFN (peptide, not shown: large carriers) [Phage-60 clonal phage peptide], the “CD28 scFv signal in presence of CD28” value in test [2] was 1.2. Moreover, in test [3], the “CD28 scFv signal” value was 2.59.
DLRLCKPAWMCYFI [Peptide-223]: the IC50 in test [1] worked out at 1470 nM.
For DLRLCKPAWMCDFI [Peptide-231], the IC50 in test [1] came out at 1270 nM.
Still for that read-out and setting: under VVKACIPTWMCQFV [Peptide-229] stands 4070 nM.
As for MDWCPSYLWNECFF (peptide, not shown: large carriers) [Phage-62 clonal phage peptide], the “CD28 scFv signal in presence of CD28” value in test [2] is 0.133. Moreover, the “CD28 scFv signal” value in test [3] is 2.
In the case of ISKWCIPEWMCTSP [Peptide-237], the IC50 in test [1] came to 2700 nM.
For MAWCPVYLWHECFN (peptide, not shown: large carriers) [Phage-47 clonal phage peptide], the “CD28 scFv signal in presence of CD28” value in test [2] turned out to be 0.351. Also, in test [3], the “CD28 scFv signal” value was determined as 2.27.
For the molecule EFKWCIPSWMCHET [Peptide-228], the IC50 in test [1] worked out at 1920 nM.
